Data taken from PMC4015496 (Genes & Development, 2014).

T1: CTCFwt, full length, GST tag removed (human), P49711
T1 chain: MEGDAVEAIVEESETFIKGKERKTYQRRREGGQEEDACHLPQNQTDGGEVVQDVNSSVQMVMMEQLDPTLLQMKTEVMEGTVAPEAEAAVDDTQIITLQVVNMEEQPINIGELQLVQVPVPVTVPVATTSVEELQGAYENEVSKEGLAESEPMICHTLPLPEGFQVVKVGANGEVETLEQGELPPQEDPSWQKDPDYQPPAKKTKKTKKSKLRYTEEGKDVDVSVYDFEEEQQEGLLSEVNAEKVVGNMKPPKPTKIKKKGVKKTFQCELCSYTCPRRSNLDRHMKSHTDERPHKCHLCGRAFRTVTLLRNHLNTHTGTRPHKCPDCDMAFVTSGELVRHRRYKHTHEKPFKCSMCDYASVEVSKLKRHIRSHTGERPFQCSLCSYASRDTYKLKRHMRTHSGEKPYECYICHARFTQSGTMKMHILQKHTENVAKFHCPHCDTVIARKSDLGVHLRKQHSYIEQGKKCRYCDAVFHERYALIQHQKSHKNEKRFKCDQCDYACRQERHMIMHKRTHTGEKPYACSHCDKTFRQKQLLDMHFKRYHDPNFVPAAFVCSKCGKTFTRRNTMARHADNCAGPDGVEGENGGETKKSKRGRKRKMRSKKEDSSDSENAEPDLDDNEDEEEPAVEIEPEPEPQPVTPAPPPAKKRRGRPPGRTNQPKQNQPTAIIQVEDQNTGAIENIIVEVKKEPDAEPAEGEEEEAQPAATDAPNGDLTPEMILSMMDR


Key:
[1] = target: the molecule itself; experiment: SEC
[2] = target: T1, CTCFwt, full length, GST tag removed …; experiment: SEC; conditions: remark: other sources report otherwise

stoichiometry N [2] | Binder | binding result [1]
– | RBR fragment of CTCF (purified, used in gel filtration) (domain or fragment, human, UniProt P49711 520-727, looked up) EKPYACSHCDKTFRQKQLLDMHFKRYHDPNFVPAAFVCSKCGKTFTRRNTMARHADNCAGPDGVEGENGGETKKSKRGRKRKMRSKKEDSSDSENAEPDLDDNEDEEEPAVEIEPEPEPQPVTPAPPPAKKRRGRPPGRTNQPKQNQPTAIIQVEDQNTGAIENIIVEVKKEPDAEPAEGEEEEAQPAATDAPNGDLTPEMILSMMDR | binds
3 | CTCFwt, full length, GST tag removed, P49711 1-727 (natural protein) MEGDAVEAIVEESETFIKGKERKTYQRRREGGQEEDACHLPQNQTDGGEVVQDVNSSVQMVMMEQLDPTLLQMKTEVMEGTVAPEAEAAVDDTQIITLQVVNMEEQPINIGELQLVQVPVPVTVPVATTSVEELQGAYENEVSKEGLAESEPMICHTLPLPEGFQVVKVGANGEVETLEQGELPPQEDPSWQKDPDYQPPAKKTKKTKKSKLRYTEEGKDVDVSVYDFEEEQQEGLLSEVNAEKVVGNMKPPKPTKIKKKGVKKTFQCELCSYTCPRRSNLDRHMKSHTDERPHKCHLCGRAFRTVTLLRNHLNTHTGTRPHKCPDCDMAFVTSGELVRHRRYKHTHEKPFKCSMCDYASVEVSKLKRHIRSHTGERPFQCSLCSYASRDTYKLKRHMRTHSGEKPYECYICHARFTQSGTMKMHILQKHTENVAKFHCPHCDTVIARKSDLGVHLRKQHSYIEQGKKCRYCDAVFHERYALIQHQKSHKNEKRFKCDQCDYACRQERHMIMHKRTHTGEKPYACSHCDKTFRQKQLLDMHFKRYHDPNFVPAAFVCSKCGKTFTRRNTMARHADNCAGPDGVEGENGGETKKSKRGRKRKMRSKKEDSSDSENAEPDLDDNEDEEEPAVEIEPEPEPQPVTPAPPPAKKRRGRPPGRTNQPKQNQPTAIIQVEDQNTGAIENIIVEVKKEPDAEPAEGEEEEAQPAATDAPNGDLTPEMILSMMDR | –
